Experimental data taken from patent US20240076389A1 (NATIONAL RESEARCH COUNCIL OF CANADA, published 2024).

T1: human AXL expressed on the cell surface of tumor cell lines (human, UniProt P30530 26-894)
T1 construct: whole, on cells; also called cell surface-expressed AXL; cell-based AXL
T1 sequence (looked up): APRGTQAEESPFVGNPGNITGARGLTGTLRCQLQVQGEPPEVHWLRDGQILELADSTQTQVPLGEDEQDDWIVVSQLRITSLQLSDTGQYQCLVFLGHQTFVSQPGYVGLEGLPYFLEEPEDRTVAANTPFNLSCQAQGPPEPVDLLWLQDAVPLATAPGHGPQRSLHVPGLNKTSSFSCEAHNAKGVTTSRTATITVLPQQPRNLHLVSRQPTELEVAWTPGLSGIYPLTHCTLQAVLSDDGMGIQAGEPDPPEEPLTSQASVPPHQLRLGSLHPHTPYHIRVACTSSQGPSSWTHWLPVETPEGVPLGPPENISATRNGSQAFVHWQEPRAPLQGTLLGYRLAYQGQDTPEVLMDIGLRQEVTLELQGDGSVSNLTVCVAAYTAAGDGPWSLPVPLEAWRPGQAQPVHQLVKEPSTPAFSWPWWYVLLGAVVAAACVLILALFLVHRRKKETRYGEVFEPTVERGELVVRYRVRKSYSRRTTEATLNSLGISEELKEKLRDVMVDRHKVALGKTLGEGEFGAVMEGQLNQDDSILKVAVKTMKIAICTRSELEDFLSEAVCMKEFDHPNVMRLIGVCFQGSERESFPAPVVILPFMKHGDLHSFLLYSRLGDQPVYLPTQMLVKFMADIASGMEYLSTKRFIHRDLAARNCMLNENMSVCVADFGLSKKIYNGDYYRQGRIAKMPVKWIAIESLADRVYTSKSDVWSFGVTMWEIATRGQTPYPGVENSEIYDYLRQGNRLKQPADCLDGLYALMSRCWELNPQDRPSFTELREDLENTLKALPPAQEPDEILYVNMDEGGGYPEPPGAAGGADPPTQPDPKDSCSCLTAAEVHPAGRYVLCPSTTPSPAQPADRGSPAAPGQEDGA

T2: mouse AXL extracellular domain (Sino cat. 51026-M08H) (mouse, UniProt Q00993 19-445)
T2 construct: extracellular domain; Bought protein; also called mouse AXL ECD
T2 sequence (looked up): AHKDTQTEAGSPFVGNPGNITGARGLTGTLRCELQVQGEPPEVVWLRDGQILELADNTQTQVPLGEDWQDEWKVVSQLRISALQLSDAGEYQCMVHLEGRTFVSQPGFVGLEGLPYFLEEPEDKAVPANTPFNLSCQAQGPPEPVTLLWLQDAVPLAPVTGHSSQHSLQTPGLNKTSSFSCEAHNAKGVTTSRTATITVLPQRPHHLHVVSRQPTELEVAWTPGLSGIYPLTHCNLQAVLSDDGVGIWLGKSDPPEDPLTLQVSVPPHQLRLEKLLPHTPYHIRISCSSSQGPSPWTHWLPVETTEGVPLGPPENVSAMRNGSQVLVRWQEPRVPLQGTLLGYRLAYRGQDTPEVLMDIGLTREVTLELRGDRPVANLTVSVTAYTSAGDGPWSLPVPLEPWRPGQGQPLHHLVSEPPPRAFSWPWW


Assays:
[1] = molecular target: T1, human AXL expressed on the cell surface …; experiment: FACS on MDA-MB-231 luciferase cells, apparent Kd, human Fc format
Method: FACS binding assay. Adherent cells were dissociated with non-enzymatic Sigma Cell Dissociation Solution (Cat. No. C5789). Cells suspensions were added to polypropylene, V-bottom 96-well plates and incubated for 2 hours on ice with primary antibodies at concentrations ranging from 100 nM to 0.001 nM or at a single dose of 100 nM (for the non-specific control). After incubation and washes, cells were incubated with fluorescently labeled secondary antibody (Alexa Fluor® 488 anti-human IgG from Jackson Cat. No 709-546-098) for 1 hour on ice, then washed. Cell viability was determined using Fixable viability dye 450 (20 min on ice). Stained cells were fixed in 1% formaldehyde at 4° C. and stored at 4° C. until acquisition which was performed the next day.
Binding of recombinant chimeric Abs to three cell lines was assessed by FACS as described above. The apparent Bmax and Kd determination is shown below in Table 14.

[2] = molecular target: T2, mouse AXL extracellular domain (Sino …); experiment: ELISA on coated mouse AXL ECD (100 ng/well)
Method: ELISA. ELISAs against human, cyno and mouse AXL ECDs were conducted by immobilizing 100 ng of each protein in wells of Nunc MaxiSorp microplates overnight. Human AXL (aa 1-451) and cyno AXL (aa 1-449) were produced recombinantly as described in Example 10. Mouse AXL was purchased from Sino (cat. 51026-M08H). The next day, plates were blocked with 5% (w/v) dried milk in PBS. Murine mAbs (either hybridoma- or recombinantly-produced) or VHH-Fcs were diluted in PBS containing 1% BSA and 0.1% Tween-20 and added to wells for 2 hours at room temperature. Wells were washed 5× with PBS containing 0.1% Tween-20, then HRP-labeled protein A (diluted 1:1000 in PBS containing 1% BSA and 0.1% Tween™-20) was added to wells for 1 hour at room temperature. Wells were washed again 5× with PBS/0.1% Tween-20 and developed using TMB substrate. Absorbance was measured at 450 nm. As a positive control for mouse AXL binding, a commercial anti-mouse AXL mAb (clone 175128, R&D Systems MAB8541, rat IgG2A) was used and detected with donkey […] secondary antibody.

Kd [1] [nM]	binding result [2]	Binder
0.233	–	NRC-sdAb001-Fc (VHH-human IgG1 Fc fusion) (Fc fusion, VHH fused N-terminally to human IgG1 Fc, made in HEK293 cells; also called NRC-sdAb0001-Fc; NRC-sdAb001-hIgG1; not shown: human IgG1 Fc) QVKLEESGGGLVQAGGSLRLSCTASASISSFDIMGWYRQAPGKQRELVAAITTLDIANYRDSVKGRFTISRDNAKNTVYLQMDSLKPEDTARYHCAAFQSDQNYWGQGTQVTVSS
–	no binding	hFC-F107-10G1 (antibody, human IgG1, kappa, V domains shown, Chimeric mAb, human IgG1 / human kappa constant regions; also called mAb F107-10G1) VH: EVNLVESGGGVVKPGASLKLSCEASGFTFSNYGMSWVRQTSDKRLEWVASISGGGGRTYYLDNVKGRFIISRENAKNTLYLQMSSLKSEDTALFYCARGARASYFAMDYWGQGSSVTVSS VL: VIVMTQSHKFMSTSVGDRVSITCKASQDVTTAVAWYQQKPGQSPKLLIYWASTRHTGVPDRFTGSGSGTDYSLTISNVQTEDLAFYYCQQHFTTPLTFGAGTKLELKR
